Reference: US10538802B2, “Polypeptide substrate for the detection of von Williebrand factor cleaving protease ADAMTS13” (IMMUCOR GTI DIAGNOSTICS, INC., priority 2011, dated 2020)

Target: T1, ADAMTS13 (Homo sapiens, UniProt Q76LX8)
T1 construct: tissue Gen-Probe GTI Diagnostics (ATS-13 kit calibrators, controls and proficiency samples); George King Biomedical Inc. (FACT, A-FACT, B-FACT plasmas) ATS-13; host or cells: plasma
T1 sequence (Q76LX8 75-1427): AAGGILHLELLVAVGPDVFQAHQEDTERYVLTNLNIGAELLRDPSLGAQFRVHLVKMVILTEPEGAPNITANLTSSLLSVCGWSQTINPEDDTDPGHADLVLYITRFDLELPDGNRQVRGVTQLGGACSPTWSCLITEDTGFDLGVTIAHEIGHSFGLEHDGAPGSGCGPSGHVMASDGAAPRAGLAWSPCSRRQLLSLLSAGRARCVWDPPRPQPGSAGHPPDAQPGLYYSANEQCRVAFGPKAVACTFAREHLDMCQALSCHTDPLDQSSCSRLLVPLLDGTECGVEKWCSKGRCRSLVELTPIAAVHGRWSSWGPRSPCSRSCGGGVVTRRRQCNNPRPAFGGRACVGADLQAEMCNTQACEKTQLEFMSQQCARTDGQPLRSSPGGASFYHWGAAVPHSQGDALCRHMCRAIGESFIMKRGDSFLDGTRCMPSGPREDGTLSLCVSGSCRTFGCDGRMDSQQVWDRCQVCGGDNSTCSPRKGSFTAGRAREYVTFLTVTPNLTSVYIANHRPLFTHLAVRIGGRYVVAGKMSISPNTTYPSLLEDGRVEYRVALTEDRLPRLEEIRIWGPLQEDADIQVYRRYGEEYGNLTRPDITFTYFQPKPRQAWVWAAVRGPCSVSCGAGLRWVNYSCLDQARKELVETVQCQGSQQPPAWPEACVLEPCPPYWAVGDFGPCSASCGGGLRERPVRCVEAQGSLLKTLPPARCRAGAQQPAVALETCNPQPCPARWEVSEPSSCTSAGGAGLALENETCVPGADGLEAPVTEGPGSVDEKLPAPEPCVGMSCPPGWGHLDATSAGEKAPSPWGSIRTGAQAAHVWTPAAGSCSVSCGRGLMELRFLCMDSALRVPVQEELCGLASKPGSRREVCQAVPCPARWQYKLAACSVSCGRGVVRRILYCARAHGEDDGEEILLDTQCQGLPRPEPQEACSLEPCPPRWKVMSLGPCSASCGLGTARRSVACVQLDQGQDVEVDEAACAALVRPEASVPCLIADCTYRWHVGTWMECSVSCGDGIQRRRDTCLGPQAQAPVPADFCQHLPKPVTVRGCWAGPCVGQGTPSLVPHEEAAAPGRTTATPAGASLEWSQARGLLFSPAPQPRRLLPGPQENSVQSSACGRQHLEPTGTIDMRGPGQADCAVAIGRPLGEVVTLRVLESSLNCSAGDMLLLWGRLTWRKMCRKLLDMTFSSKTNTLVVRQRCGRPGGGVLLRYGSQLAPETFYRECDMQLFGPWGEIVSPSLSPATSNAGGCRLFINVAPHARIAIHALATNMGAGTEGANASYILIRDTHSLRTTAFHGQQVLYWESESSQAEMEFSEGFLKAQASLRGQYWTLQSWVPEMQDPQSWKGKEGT
Assay: ADAMTS13 activity assay with fluorogenic (FRET) polypeptide substrate and diluted plasma samples
Format: biochemical
Conditions: for % Normal ADAMTS13 Activity: 30 Minute Incubation Time: Table 5
Description: The procedure in this example was performed substantially as described in Kokame, K., Y. Nobe, Y. Kokubo, A. Okayama, and T. Miyata. 2005. FRETS-VWF73, a first fluorogenic substrate for ADAMTS13 assay. Br. J. Haematol. 129:93-100, but using SEQ ID NO: 1 in place of the 73 amino acid substrate described therein. The FRETS-VWF73 substrate solution was dissolved in 25% dimethyl sulphoxide/water to prepare the 100 microM stock solution. The GTI FRET4 SEQ ID NO: 1 was dissolved in 100% DMSO. Both substrates were diluted to equal concentrations using ATS-13 substrate buffer (Gen-Probe GT1 Diagnostics, Inc., U.S.A., Cat#ATS-13).
Plasma samples were diluted according to the ATS-13 Direction Insert using ATS-13 specimen diluent (Gen-Probe GTI Diagnostics, Inc., U.S.A., Cat# ATS-13). The diluted plasma samples were mixed with the diluted substrate and the fluorescence was read at 0, 5, 10, 15, 20, 30, 45 minutes using a Biotek FLX800 at the appropriate excitation and emission wavelengths for each substrate.
The fluorophore-quencher pair in the SEQ ID NO: 1 polypeptide substrate is FAM-5/TQ 2^Tm (Ex 485±20; Em 528±20; AAT Bioquest, Inc. Sunnyvale, Calif. U.S.A.). The fluorophore and quencher pair of FRETS-VWF73 (Nma/Dnp) described in Kokame has been substituted with FAM-5 and TQ_2 respectively in GTI_FRET4 SEQ ID NO: 1. Furthermore, in the SEQ ID NO: 1 polypeptide the position of the fluorophore (FAM-5) and quencher (TQ_2) has been swapped relative to the position of the fluorophore and quencher of the FRETS-VWF73 construct. Therefore, for GTI_FRET4 SEQ ID NO: 1, attachment of the fluorophore (FAM-5) occurs by substituting asparagine with cystine at position 15. The quencher (TQ_2) was attached by substituting glutamine with lysine at position 4 (FIG. 2 and Table 4).
For this experiment, substrate concentration and fluorescence reader settings determined on the previous experiment are used. The specimens tested (listed in Table 3), include a panel of proficiency samples prepared for use with ATS-13 (Gen-Probe GTI Diagnostics, Inc., U.S.A., Cat# ATS-13) which included samples with normal or deficient ADAMTS13 activity levels. In addition, six Factor Assay ConTrol plasma were used (2 FACT, 2 A-FACT and 2 B-FACT, from George King Biomedical Inc., Kansas, USA). The assays for the SEQ ID NO: 1 substrate and for the prior art FRETS-VWF73 assay were performed generally as according to the procedure described in Example 1. Substrate is prepared according to the conditions used for initial testing of the substrate, which prepared the molar amount of SEQ ID NO: 1 polypeptide substrate used in the assay to be equivalent to the molar amount of FRETS-VWF73 used in the prior art. The […] assays were read at 0, 5, 10, 15, 20, 30, 45 minutes.
Testing of substrate for cleavability by ADAMTS13 is determined as is generally described in Example 1. […]

Sequence: DREKAPNLVYMVTGCPASDEIKRLPGDIQVVPIEVIGWPNAPILIQDEETLPREAPDLVLQR [GTI_FRET4]
- time through which the calibration curve continued to be linear: ≤ 45 min
- trend line of the calibration curve: linear
- time at which the calculated % N ADAMTS13 activity plateaus (Example 1): 30 min
- difference between Calibrator A (0% ADAMTS13 activity) and Calibrator E (100% ADAMTS13 activity), dynamic range (Example 1, at 30 minutes): approximately 34,000 RFU
- difference between Calibrator A and E, dynamic range (Example 2, at 30 minutes): approximately 35000 RFU
- % Normal ADAMTS13 Activity: 30 Minute Incubation Time (sample 5 (ATS13-5)): 7 % Normal
- % Normal ADAMTS13 Activity: 30 Minute Incubation Time (sample 22 (ATS13-4)): 21 % Normal
- % Normal ADAMTS13 Activity: 30 Minute Incubation Time (sample 50 (ATS13-3)): 47 % Normal
- % Normal ADAMTS13 Activity: 30 Minute Incubation Time (sample 72 (ATS13-2)): 72 % Normal
- % Normal ADAMTS13 Activity: 30 Minute Incubation Time (sample 90 (ATS13-1)): 92 % Normal
- % Normal ADAMTS13 Activity: 30 Minute Incubation Time (sample A-FACT lot 900): 10 % Normal
- % Normal ADAMTS13 Activity: 30 Minute Incubation Time (sample A-FACT lot 1284): 10 % Normal
- % Normal ADAMTS13 Activity: 30 Minute Incubation Time (sample B-FACT lot 1114): 45 % Normal
- % Normal ADAMTS13 Activity: 30 Minute Incubation Time (sample B-FACT lot 1266): 46 % Normal
- % Normal ADAMTS13 Activity: 30 Minute Incubation Time (sample BCM2): 19 % Normal
- % Normal ADAMTS13 Activity: 30 Minute Incubation Time (sample BCM2 HI): 12 % Normal
- % Normal ADAMTS13 Activity: 30 Minute Incubation Time (sample BCM2 mixed): 51 % Normal
- % Normal ADAMTS13 Activity: 30 Minute Incubation Time (sample CNTL): <Calibrator A
- % Normal ADAMTS13 Activity: 30 Minute Incubation Time (sample CNTL HI): <Calibrator A
- % Normal ADAMTS13 Activity: 30 Minute Incubation Time (sample CNTL mixed): 4 % Normal
- % Normal ADAMTS13 Activity: 30 Minute Incubation Time (sample Calibrator A): 4 % Normal
- % Normal ADAMTS13 Activity: 30 Minute Incubation Time (sample Calibrator B): 9 % Normal
- % Normal ADAMTS13 Activity: 30 Minute Incubation Time (sample Calibrator C): 29 % Normal
- % Normal ADAMTS13 Activity: 30 Minute Incubation Time (sample Calibrator D): 61 % Normal
- % Normal ADAMTS13 Activity: 30 Minute Incubation Time (sample Calibrator E): 110 % Normal
- % Normal ADAMTS13 Activity: 30 Minute Incubation Time (sample FACT lot 222e1): 111 % Normal
- % Normal ADAMTS13 Activity: 30 Minute Incubation Time (sample FACT lot 1223): 107 % Normal
- % Normal ADAMTS13 Activity: 30 Minute Incubation Time (sample NPP032206): >Calibrator E
- % Normal ADAMTS13 Activity: 30 Minute Incubation Time (sample NPP032206 HI): 9 % Normal
- % Normal ADAMTS13 Activity: 30 Minute Incubation Time (sample NPP032206 at 37C): 106 % Normal
- % Normal ADAMTS13 Activity: 30 Minute Incubation Time (sample NPP032206 mixed): 57 % Normal
- % Normal ADAMTS13 Activity: 30 Minute Incubation Time (sample Positive Control High): 50 % Normal
- % Normal ADAMTS13 Activity: 30 Minute Incubation Time (sample Positive Control Low): 14 % Normal
- % Normal ADAMTS13 Activity: 30 Minute Incubation Time (sample UAMS041609): 31 % Normal
- % Normal ADAMTS13 Activity: 30 Minute Incubation Time (sample VF040901): 10 % Normal
- Increase in Fluorescence Values (X minute - 0 minute Reading) (sample Calibrator A, 15 min): 676 RFU
- Increase in Fluorescence Values (X minute - 0 minute Reading) (sample Calibrator A, 30 min): 843 RFU
- Increase in Fluorescence Values (X minute - 0 minute Reading) (sample Calibrator A, 45 min): 921 RFU
